In paper doi:10.1101/2019.12.11.872267 (bioRxiv, 2019):

Biological target: the molecule itself
Test: negative stain electron microscopy

B1: Drosophila P5CS, purified from E. coli (enzyme, UniProt Q9VNW6 1-776, looked up)
chain: MLQNSFKLAQSLRNGFYRNAWRAFSSHGPRQPLVSPERRLEKAHPTFTERSQLKYARRLVVKLGSAVITREDNHGLALGRLASIVEQVAECHLEGREVMMVTSGAVAFGKQKLAQELLMSLSMRETLNPKDSKEFDGATLEPRAAAAVGQSGLMSLYDAMFAQYGVKIAQVLVTKPDFYNEETRNNLFCTLSELISLNIVPIINTNDAVSPPMFIRDDEPAGGARRGIPIKDNDSLSAMLAAEVQADLLILMSDVDGIYNKPPWEDGAKLMHTYTSDDSNSIEFGKKSKVGTGGMDSKVKAATWALDRGVSVVICNGMQEKAIKTIIGGRKVGTFFTEATESANAVPVEVMAENARTGSRQMQALTPAQRASAVNTLADLLVSREKFILDANAKDLAEAQKSGLAKPLLSRLSLNPAKLKNLSVGLKQIAEDSHKNVGRVLRRTRLADQLELKQVTVPIGVLLVIFESRPDSLPQVAALAMASANGLLLKGGKEAAHSNKALMELVKEALATVGAEHAVSLVSTREEISDLLSMENHIDLIIPRGSSDLVRSIQQQSLHIPVLGHAEGVCHVYIDRDADLEKALRIARDAKCDYPAACNAMETLLIHEDLMSGAIFGDVCNMLKREGVKIYAGPRLNQQLTFGPPAAKSLKHEYGALECCIEVVPSLDEAINHIHTYGSSHTDVIVTENDAAARQFLGSVDSACVFHNASSRFADGFRFGLGAEVGISTARIHARGPVGVEGLLTTKWILEGQDHAAADFAEGGGRTWLHETLPLD
binding result: binds
